Test results reported in patent US20210041163A1 (Hoffmann-La Roche, published 2021).

Target: T1, human neonatal Fc receptor (FcRn), FcRn beta-2-microglobulin complex (human, UniProt P55899 24-297; P61769 21-119)
T1 construct: also called human FcRn
Experiment: SPR-based binding assay, relative to the reference antibody

T1 sequence (P55899 24-297 limits assumed, chain 1 of 2): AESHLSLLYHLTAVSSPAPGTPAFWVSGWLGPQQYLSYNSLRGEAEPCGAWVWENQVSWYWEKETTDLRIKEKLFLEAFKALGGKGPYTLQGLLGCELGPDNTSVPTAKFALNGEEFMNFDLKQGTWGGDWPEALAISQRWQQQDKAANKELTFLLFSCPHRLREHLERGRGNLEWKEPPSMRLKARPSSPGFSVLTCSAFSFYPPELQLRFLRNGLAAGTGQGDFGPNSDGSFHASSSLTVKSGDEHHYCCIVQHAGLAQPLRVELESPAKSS
T1 sequence (P61769 21-119 limits assumed, chain 2 of 2): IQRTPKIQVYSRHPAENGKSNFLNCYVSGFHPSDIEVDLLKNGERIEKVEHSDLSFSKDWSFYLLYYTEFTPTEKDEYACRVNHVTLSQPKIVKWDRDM

B1: anti-digoxygenin antibody variant 7 (LC-G57R and LC-S60K) (antibody, human IgG1, kappa, name in Kabat numbering)
heavy: not shown
light: DIQMTQSPSSLSASVGDRVTITCRASQDIKNYLNWYQQKPGKAPKLLIYYSSTLLSRVPKRFSGSGSGTDFTLTISSLQPEDFATYYCQQSITLPPTFGGGTKVEIKRRTVAAPSVFIFPPSDEQLKSGTASVVCLLNNFYPREAKVQWKVDNALQSGNSQESVTEQDSKDSTYSLSSTLTLSKADYEKHKVYACEVTHQGLSSPVTKSFNRGEC
notes: Variant of m1
relative SPR binding: 161%
